The text below walks through data of article PMC9073318 (Plant Communications, 2022).

The target of data set [1] is T1, TaPAPhy_b2 (Triticum aestivum, UniProt F6MIW5).
T1 sequence (F6MIW5 21-530): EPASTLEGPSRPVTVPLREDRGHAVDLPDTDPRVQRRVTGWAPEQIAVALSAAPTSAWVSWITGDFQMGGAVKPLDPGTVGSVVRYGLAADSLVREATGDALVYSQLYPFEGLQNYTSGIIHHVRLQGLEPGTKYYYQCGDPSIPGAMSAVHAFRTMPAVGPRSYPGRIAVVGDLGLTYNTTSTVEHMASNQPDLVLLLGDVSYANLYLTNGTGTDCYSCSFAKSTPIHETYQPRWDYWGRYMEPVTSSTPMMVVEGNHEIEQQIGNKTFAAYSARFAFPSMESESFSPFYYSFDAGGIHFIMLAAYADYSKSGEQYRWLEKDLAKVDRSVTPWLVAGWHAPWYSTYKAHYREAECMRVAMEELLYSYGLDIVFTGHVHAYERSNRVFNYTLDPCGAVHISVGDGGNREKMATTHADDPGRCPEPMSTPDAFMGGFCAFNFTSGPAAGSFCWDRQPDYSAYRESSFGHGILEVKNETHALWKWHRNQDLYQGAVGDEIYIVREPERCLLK
On the set-up: gene TRAES_3BF026700100CFD_c1. Conditions: deglycosylated enzyme; product-bound state 1.42 A; bound to both irons (second structure, substrate-bound state, 1.54 A: 6GIZ).

In data set [2] the target is T1, TaPAPhy_b2. Kind of data set: X-ray crystal structure of soaked crystal. Set-up: gene TRAES_3BF026700100CFD_c1; signal peptide (20 aa) and C-terminal 7-aa ER-retention signal removed; alpha-factor secretion signal, C-terminal 6xHis; Pichia pastoris KM71H (OCH1::G418R); 510 residues, Fe-Fe centre; glycosylated for assays, Endo F1 deglycosylated for crystals. Type of data set: binding. Conditions: 5 mM InsS6 soak, pH 5.5; deglycosylated enzyme; site adjacent to active centre (standby mode), phosphate at catalytic centre.

Substrate in the data set “purified protein”: O=P(O)(O)O[C@H]1[C@H](OP(=O)(O)O)[C@@H](OP(=O)(O)O)[C@H](OP(=O)(O)O)[C@@H](OP(=O)(O)O)[C@H]1OP(=O)(O)O
As to the kind of experiment: purified protein. Conditions: 0.2 M acetate pH 5.5, glycosylated enzyme.

For `O=P(O)(O)O` [phosphate], the X-ray crystal structure entry on TaPAPhy_b2 [1] is given as “A phosphate ion is bound to the two metal ions”.

On to `O=S(=O)(O)O[C@H]1[C@H](OS(=O)(=O)O)[C@@H](OS(=O)(=O)O)[C@H](OS(=O)(=O)O)[C@@H](OS(=O)(=O)O)[C@H]1OS(=O)(=O)O` [InsS6, myo-inositol hexakissulfate], for which the “X-ray crystal structure of soaked crystal” value on TaPAPhy_b2 [2] was “it binds at a site immediately adjacent to the active center”.

B1: TaPAPhy_b2 (Triticum aestivum) (protein)
chain: EPASTLEGPSRPVTVPLREDRGHAVDLPDTDPRVQRRVTGWAPEQIAVALSAAPTSAWVSWITGDFQMGGAVKPLDPGTVGSVVRYGLAADSLVREATGDALVYSQLYPFEGLQNYTSGIIHHVRLQGLEPGTKYYYQCGDPSIPGAMSAVHAFRTMPAVGPRSYPGRIAVVGDLGLTYNTTSTVEHMASNQPDLVLLLGDVSYANLYLTNGTGTDCYSCSFAKSTPIHETYQPRWDYWGRYMEPVTSSTPMMVVEGNHEIEQQIGNKTFAAYSARFAFPSMESESFSPFYYSFDAGGIHFIMLAAYADYSKSGEQYRWLEKDLAKVDRSVTPWLVAGWHAPWYSTYKAHYREAECMRVAMEELLYSYGLDIVFTGHVHAYERSNRVFNYTLDPCGAVHISVGDGGNREKMATTHADDPGRCPEPMSTPDAFMGGFCAFNFTSGPAAGSFCWDRQPDYSAYRESSFGHGILEVKNETHALWKWHRNQDLYQGAVGDEIYIVREPERCLLK
Consider B1, for which, in the data set “purified protein”, the Michaelis constant (Km) worked out at 76.4 ± 7.7 µM and the catalytic constant (kcat) was determined as 23.8 ± 0.9 s⁻¹.

B2: TaPAPhy_b2 (Triticum aestivum; K430A) (protein)
chain: EPASTLEGPSRPVTVPLREDRGHAVDLPDTDPRVQRRVTGWAPEQIAVALSAAPTSAWVSWITGDFQMGGAVKPLDPGTVGSVVRYGLAADSLVREATGDALVYSQLYPFEGLQNYTSGIIHHVRLQGLEPGTKYYYQCGDPSIPGAMSAVHAFRTMPAVGPRSYPGRIAVVGDLGLTYNTTSTVEHMASNQPDLVLLLGDVSYANLYLTNGTGTDCYSCSFAKSTPIHETYQPRWDYWGRYMEPVTSSTPMMVVEGNHEIEQQIGNKTFAAYSARFAFPSMESESFSPFYYSFDAGGIHFIMLAAYADYSKSGEQYRWLEKDLAKVDRSVTPWLVAGWHAPWYSTYKAHYREAECMRVAMEELLYSYGLDIVFTGHVHAYERSNRVFNYTLDPCGAVHISVGDGGNREAMATTHADDPGRCPEPMSTPDAFMGGFCAFNFTSGPAAGSFCWDRQPDYSAYRESSFGHGILEVKNETHALWKWHRNQDLYQGAVGDEIYIVREPERCLLK
For B2, in the data set “purified protein”, the Km amounted to 307.6 ± 56.7 µM and the turnover number (kcat) is 3.1 ± 0.3 s⁻¹.

B3: TaPAPhy_b2 (Triticum aestivum; K368A) (protein)
chain: EPASTLEGPSRPVTVPLREDRGHAVDLPDTDPRVQRRVTGWAPEQIAVALSAAPTSAWVSWITGDFQMGGAVKPLDPGTVGSVVRYGLAADSLVREATGDALVYSQLYPFEGLQNYTSGIIHHVRLQGLEPGTKYYYQCGDPSIPGAMSAVHAFRTMPAVGPRSYPGRIAVVGDLGLTYNTTSTVEHMASNQPDLVLLLGDVSYANLYLTNGTGTDCYSCSFAKSTPIHETYQPRWDYWGRYMEPVTSSTPMMVVEGNHEIEQQIGNKTFAAYSARFAFPSMESESFSPFYYSFDAGGIHFIMLAAYADYSKSGEQYRWLEKDLAKVDRSVTPWLVAGWHAPWYSTYAAHYREAECMRVAMEELLYSYGLDIVFTGHVHAYERSNRVFNYTLDPCGAVHISVGDGGNREKMATTHADDPGRCPEPMSTPDAFMGGFCAFNFTSGPAAGSFCWDRQPDYSAYRESSFGHGILEVKNETHALWKWHRNQDLYQGAVGDEIYIVREPERCLLK
Consider B3, for which, in the data set “purified protein”, the Km was found to be 214.6 ± 46.6 µM and the catalytic constant (kcat) turned out to be 28.4 ± 3.0 s⁻¹.

For orientation: Km means the substrate concentration at which the rate is half of its maximum. One may read the kcat as the number of substrate molecules converted per active site and unit of time at saturation.
